Earlier results, collected in PMC12990809.

Experiments:
Test in all cases: pulldown
Conditions in all cases: 20 nM protein, 1.5 uM RNA pool; 20 mM HEPES pH 7.8, 70 mM KCl, 10 mM NaCl, 10% glycerol, 2 mM DTT, 0.1 ug/uL BSA; 30 min, 4 C (protocol of this paper; not …); cited from earlier work
[1] = target: T1, Tb927.7.5380 (Trypanosoma brucei) (UniProt Q582F3)
T1 sequence: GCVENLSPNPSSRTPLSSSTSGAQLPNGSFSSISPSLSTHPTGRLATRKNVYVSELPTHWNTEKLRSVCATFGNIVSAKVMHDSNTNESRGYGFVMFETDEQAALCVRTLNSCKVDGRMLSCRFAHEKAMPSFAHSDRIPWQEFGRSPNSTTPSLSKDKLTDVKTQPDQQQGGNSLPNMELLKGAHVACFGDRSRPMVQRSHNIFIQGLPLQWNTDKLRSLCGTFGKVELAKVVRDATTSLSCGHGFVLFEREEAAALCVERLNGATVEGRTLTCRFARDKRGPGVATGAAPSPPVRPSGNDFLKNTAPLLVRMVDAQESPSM

[2] = target: T2, TVAG_302220 (Trichomonas vaginalis) (UniProt A2EGP7)
T2 sequence: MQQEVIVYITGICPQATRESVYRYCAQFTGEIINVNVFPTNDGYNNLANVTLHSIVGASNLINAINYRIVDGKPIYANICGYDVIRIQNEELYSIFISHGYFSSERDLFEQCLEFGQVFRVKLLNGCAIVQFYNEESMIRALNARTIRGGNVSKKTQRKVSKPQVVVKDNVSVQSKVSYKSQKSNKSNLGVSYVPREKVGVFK

[3] = target: T3, RO3G_00049 (Rhizopus oryzae) (UniProt I1BGL5)
T3 sequence: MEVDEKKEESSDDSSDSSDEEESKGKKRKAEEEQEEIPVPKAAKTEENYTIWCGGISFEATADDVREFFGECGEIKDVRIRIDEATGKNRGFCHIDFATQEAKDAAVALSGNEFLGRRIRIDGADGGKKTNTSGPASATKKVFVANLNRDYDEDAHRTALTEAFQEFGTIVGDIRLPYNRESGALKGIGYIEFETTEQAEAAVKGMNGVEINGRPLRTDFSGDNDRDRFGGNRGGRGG

[4] = target: T4, PFI1435w (Plasmodium falciparum) (UniProt C0H570)
T4 sequence: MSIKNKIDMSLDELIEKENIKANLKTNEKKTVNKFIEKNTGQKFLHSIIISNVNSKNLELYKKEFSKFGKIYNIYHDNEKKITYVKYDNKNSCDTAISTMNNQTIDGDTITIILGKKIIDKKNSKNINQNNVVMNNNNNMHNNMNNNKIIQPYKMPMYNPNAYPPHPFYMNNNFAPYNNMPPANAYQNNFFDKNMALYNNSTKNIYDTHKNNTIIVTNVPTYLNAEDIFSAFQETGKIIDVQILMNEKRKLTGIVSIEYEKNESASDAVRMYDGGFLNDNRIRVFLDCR

[5] = target: T5, Tb927.3.3930 N185S (Trypanosoma brucei) (UniProt Q57WC9)
T5 sequence: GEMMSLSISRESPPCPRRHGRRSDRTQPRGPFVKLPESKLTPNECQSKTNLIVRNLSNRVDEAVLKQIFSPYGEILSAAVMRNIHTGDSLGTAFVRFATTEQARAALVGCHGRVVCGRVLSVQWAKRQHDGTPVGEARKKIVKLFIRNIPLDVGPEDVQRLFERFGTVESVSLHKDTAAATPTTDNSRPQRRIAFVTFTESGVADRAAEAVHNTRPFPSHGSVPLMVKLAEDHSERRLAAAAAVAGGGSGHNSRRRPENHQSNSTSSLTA

[6] = target: T6, LmjF.32.0750 (Leishmania major) (UniProt Q4Q5K7)
T6 sequence: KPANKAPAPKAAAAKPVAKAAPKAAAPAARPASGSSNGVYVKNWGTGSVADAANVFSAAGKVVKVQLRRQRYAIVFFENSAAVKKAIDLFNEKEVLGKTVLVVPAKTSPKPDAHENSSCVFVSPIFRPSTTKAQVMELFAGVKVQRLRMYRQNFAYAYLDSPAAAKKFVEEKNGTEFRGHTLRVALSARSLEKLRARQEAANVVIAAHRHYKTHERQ

Pcbp3 (Mus musculus) = Pcbp3 (Mus musculus) (UniProt P57722)
Pcbp3 (Mus musculus), sequence (P57722 33-371): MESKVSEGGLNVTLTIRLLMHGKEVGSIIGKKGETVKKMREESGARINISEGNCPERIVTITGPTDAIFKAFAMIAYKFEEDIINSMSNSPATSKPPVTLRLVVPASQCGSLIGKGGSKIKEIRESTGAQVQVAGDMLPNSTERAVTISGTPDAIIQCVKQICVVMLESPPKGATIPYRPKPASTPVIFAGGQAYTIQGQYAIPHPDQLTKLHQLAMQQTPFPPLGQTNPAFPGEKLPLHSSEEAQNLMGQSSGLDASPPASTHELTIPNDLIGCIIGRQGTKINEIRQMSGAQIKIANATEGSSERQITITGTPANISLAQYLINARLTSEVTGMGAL

[7] = target: T7, Thaps1841 (Thalassiosira pseudonana) (UniProt B8BS34)
T7 sequence: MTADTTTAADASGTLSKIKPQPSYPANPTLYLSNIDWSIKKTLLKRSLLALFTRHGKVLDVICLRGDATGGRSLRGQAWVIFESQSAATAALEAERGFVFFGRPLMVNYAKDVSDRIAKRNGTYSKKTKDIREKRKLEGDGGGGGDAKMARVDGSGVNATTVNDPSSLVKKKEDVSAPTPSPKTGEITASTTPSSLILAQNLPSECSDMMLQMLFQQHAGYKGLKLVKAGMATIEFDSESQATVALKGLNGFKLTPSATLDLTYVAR

[8] = target: T8, LmjF.18.0180 (Leishmania major) (UniProt Q4QE24)
T8 sequence: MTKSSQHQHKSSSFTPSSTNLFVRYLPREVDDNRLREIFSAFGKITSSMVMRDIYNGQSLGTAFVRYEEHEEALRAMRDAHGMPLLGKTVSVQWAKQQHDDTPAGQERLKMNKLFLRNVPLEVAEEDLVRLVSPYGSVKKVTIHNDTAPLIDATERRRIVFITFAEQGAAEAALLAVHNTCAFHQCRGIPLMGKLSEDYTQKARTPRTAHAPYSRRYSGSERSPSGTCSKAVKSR

[9] = target: T9, PFI1695c (Plasmodium falciparum) (UniProt Q8I2G9)
T9 sequence: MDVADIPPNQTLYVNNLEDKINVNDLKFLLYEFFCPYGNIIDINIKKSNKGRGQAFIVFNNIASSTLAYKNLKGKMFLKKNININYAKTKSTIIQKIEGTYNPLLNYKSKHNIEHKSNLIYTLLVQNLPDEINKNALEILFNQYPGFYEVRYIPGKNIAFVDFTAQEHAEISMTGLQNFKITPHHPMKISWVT

[10] = target: T10, Tb927.8.6650 (Trypanosoma brucei) (UniProt Q57TU8)
T10 sequence: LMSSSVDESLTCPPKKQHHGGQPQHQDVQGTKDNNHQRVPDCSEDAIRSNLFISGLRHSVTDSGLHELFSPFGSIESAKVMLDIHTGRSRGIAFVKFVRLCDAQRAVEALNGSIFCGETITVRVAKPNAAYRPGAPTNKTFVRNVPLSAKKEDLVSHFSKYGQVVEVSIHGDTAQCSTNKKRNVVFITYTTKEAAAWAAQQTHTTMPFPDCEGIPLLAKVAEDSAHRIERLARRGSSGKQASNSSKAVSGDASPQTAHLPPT

[11] = target: T11, e_gw1.81.40.1 (Physcomitrella patens) (UniProt A0A2K1J988)
T11 sequence: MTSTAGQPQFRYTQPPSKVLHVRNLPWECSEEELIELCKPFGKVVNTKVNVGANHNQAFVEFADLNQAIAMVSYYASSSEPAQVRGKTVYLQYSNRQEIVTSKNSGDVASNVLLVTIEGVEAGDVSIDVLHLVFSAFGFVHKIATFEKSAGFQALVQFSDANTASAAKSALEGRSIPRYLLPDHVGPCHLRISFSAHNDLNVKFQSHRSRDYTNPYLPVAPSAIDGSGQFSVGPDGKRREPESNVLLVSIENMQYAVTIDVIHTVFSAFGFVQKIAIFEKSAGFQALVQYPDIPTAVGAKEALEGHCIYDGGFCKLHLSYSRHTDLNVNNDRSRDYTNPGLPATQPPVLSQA

[12] = target: T12, Tb09.211.0560 (Trypanosoma brucei) (UniProt Q38EA2)
T12 sequence: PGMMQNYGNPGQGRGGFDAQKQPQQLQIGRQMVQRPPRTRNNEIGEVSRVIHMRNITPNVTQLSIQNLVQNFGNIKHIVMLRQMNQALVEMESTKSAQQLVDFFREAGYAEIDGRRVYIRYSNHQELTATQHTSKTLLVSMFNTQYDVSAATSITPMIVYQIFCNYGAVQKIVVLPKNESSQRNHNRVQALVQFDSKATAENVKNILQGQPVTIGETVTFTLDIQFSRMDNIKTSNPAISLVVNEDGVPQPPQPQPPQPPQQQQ

[13] = target: T13, gw1.219.6.1 (Physcomitrella patens) (UniProt A0A2K1KNA4)
T13 sequence: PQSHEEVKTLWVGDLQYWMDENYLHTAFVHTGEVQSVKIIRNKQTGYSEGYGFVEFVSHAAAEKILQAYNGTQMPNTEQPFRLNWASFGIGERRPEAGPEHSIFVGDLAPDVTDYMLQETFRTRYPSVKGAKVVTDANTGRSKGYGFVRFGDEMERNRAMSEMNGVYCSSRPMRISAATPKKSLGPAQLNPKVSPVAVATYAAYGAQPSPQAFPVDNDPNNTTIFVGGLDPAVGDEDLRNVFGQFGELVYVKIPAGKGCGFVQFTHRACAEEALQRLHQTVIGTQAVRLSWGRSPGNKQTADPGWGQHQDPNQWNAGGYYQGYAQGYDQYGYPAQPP

[14] = target: T14, gw1.84.45.1 (Physcomitrella patens) (UniProt A0A2K1L0S1)
T14 sequence: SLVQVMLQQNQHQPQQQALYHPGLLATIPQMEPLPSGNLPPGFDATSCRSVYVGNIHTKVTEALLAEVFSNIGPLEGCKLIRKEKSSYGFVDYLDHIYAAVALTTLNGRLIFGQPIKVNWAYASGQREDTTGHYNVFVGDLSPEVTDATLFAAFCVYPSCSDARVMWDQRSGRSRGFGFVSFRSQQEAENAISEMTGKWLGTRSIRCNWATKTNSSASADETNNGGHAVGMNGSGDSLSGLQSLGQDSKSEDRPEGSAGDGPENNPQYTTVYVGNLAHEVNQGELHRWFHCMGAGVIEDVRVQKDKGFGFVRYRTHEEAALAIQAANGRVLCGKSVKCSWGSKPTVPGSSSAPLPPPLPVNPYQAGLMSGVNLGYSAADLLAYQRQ

[15] = target: T15, PF13_0315 (Plasmodium falciparum) (UniProt Q8IDB7)
T15 sequence: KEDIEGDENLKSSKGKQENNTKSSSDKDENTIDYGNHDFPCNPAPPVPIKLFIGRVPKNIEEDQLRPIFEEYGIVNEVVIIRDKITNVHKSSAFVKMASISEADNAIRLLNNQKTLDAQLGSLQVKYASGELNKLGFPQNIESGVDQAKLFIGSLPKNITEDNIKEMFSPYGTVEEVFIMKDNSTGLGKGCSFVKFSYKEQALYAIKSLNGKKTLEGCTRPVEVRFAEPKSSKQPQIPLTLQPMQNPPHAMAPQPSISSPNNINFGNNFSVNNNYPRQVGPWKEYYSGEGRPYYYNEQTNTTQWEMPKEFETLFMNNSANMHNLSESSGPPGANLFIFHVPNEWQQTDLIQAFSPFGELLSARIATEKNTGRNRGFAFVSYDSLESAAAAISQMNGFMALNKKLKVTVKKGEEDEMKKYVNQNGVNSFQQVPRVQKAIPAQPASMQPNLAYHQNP

sf3b4 (Danio rerio) = target: T16, sf3b4 (Danio rerio) (UniProt A0ACM8Q308)
T16 sequence: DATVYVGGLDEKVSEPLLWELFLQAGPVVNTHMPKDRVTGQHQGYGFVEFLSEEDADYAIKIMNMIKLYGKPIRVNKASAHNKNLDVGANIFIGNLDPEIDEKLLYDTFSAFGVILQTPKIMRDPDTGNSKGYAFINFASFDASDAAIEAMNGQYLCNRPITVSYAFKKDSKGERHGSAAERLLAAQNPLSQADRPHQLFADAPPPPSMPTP

[16] = target: T17, NCU08034 (Neurospora crassa) (UniProt Q7SAK7)
T17 sequence: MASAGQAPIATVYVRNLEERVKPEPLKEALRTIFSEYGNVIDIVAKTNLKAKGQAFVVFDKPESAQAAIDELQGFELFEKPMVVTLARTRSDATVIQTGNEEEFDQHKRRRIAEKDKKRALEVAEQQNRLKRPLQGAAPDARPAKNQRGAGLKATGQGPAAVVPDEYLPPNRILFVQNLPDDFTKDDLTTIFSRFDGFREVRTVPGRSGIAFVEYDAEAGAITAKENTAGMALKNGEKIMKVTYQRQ

In the case of UUAUU [RNAcompete motif RNCMPT00218], the binding signal (z-score (mean of top ten 7-mers)) [1] is listed as 7.15.
For CAAUAA [RNAcompete motif RNCMPT00226], the binding signal (z-score (mean of top ten 7-mers)) [2] is given as 12.9.
In the case of AGGGGAA [RNAcompete motif RNCMPT00205], the binding signal (z-score (mean of top ten 7-mers)) [3] is given as 9.5.
In the case of UUUUUU [RNAcompete motif RNCMPT00202], the binding signal (z-score (mean of top ten 7-mers)) [4] is given as 6.28.
In the case of CAUUGU [RNAcompete motif RNCMPT00216], the binding signal (z-score (mean of top ten 7-mers)) [5] is listed as 18.7.
For UACACG [RNAcompete motif RNCMPT00223], the binding signal (z-score (mean of top ten 7-mers)) [6] is given as 10.4.
In the case of CUUUCC [RNAcompete motif RNCMPT00215], the binding signal (z-score (mean of top ten 7-mers)) (Pcbp3 (Mus musculus)) is listed as 6.23.
In the case of ACACGC [RNAcompete motif RNCMPT00225], the binding signal (z-score (mean of top ten 7-mers)) [7] is given as 6.33.
For CAUUUU [RNAcompete motif RNCMPT00212], the binding signal (z-score (mean of top ten 7-mers)) [8] is given as 30.2.
For CCUGCAC [RNAcompete motif RNCMPT00203], the binding signal (z-score (mean of top ten 7-mers)) [9] is given as 9.07.
For UAUACU [RNAcompete motif RNCMPT00219], the binding signal (z-score (mean of top ten 7-mers)) [10] is listed as 15.8.
For AACCUUU [RNAcompete motif RNCMPT00206], the binding signal (z-score (mean of top ten 7-mers)) [11] is listed as 6.39.
In the case of CUUUCU [RNAcompete motif RNCMPT00220], the binding signal (z-score (mean of top ten 7-mers)) [12] is listed as 6.05.
In the case of UGUUUUU [RNAcompete motif RNCMPT00229], the binding signal (z-score (mean of top ten 7-mers)) [13] is given as 6.94.
For UUUUUU [RNAcompete motif RNCMPT00228], the binding signal (z-score (mean of top ten 7-mers)) [14] is given as 12.9.
For UUACAU [RNAcompete motif RNCMPT00200], the binding signal (z-score (mean of top ten 7-mers)) [15] is given as 7.45.
In the case of CAAAAG [RNAcompete motif RNCMPT00224], the binding signal (z-score (mean of top ten 7-mers)) (sf3b4 (Danio rerio)) is given as 28.4.
In the case of AGCACA [RNAcompete motif RNCMPT00209], the binding signal (z-score (mean of top ten 7-mers)) [16] is given as 11.1.
